Experimental data as given in patent publication US20210024601A1.

Target: CD122/CD132 receptor on cells of human PBMCs (human) (UniProt P14784)
Assay: cell-based or functional assay

Sequence of CD122/CD132 receptor on cells of human PBMCs (human) (P14784 27-551, chain 1 of 2): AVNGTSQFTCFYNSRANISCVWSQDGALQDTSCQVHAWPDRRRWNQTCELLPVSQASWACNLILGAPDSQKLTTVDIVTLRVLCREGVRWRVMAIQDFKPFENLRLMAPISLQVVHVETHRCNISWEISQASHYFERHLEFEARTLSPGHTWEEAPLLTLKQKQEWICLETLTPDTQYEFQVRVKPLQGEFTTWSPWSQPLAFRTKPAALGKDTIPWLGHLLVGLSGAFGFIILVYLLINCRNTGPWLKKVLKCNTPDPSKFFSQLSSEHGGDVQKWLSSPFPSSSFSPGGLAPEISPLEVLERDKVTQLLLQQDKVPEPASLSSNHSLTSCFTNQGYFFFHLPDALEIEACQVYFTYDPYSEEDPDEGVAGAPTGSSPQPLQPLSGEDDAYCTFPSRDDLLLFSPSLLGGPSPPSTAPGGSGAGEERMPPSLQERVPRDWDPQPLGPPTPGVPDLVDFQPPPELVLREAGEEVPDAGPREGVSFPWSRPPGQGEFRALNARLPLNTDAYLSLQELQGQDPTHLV
Sequence of CD122/CD132 receptor on cells of human PBMCs (human) (P31785 23-369, chain 2 of 2, further chain): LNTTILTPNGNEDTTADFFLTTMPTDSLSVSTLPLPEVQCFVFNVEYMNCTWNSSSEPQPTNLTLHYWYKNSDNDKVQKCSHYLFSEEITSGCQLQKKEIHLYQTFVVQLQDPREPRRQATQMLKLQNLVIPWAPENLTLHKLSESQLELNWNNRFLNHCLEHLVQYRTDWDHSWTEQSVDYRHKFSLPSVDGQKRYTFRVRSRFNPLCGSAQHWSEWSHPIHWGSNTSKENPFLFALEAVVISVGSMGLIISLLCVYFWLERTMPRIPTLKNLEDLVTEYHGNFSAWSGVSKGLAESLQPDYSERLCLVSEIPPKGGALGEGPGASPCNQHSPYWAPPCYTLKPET

- pSTAT5 EC50, Treg (human PBMCs): 0.37 nM
- pSTAT5 Max. Signal, Treg (normalised to V69A/Q74P): 0.5
Substance: C-term N88D: irrelevant antibody with IL-2 N88D fused to its C-terminus (IgG-(IL-2N88D)2 of Peterson et al.)
